Laboratory results taken from patent publication US20250011869A1, “TLR3 INHIBITORS FOR USE IN THE TREATMENT OF DISEASES ASSOCIATED WITH CARDIOVASCULAR CALCIFICATION” (priority 2021, published 2025).

Molecular target: T1, human TLR3 ectodomain (huTLR3-ECD) (Homo sapiens, UniProt O15455)
T1 construct: The human TLR3-ECD (27-700) was modified with an N-terminal gb67 leader and a C-terminal 6× poly histidine tag; gb67 (gp67) secretion leader (N); 6xHis (C); made in house; host or cells: Sf21 insect cells (baculovirus, pFastBac1, Bac-to-Bac)
Experiment: In vitro binding by co-immunoprecipitation
Conditions: purified TLR3 ectodomain and purified BGN
Experimental: The human TLR3-ECD (27-700) was modified with an N-terminal gb67 leader and a C-terminal 6× poly histidine tag and the sequence was produced synthetically (Geneart) and cloned into a pFastBac1 vector. The virus was generated and amplified at large scale levels using a Sf21 insect cell-line (Bac-to-Bac®). One liter Sf21 cell culture was infected and harvested at 72 hours. The culture was centrifuged at 1000×g for 30 min and the supernatant was filtered through a 0.2 μm nitrocellulose membrane. The filtrate was loaded onto a 5 ml His Trap EXCEL column (GE, 17-3712-06) using a peristaltic pump. […] The protein fractions were analyzed by SDS-PAGE and TLR3 containing fractions were pooled and concentrated to a final volume of ˜500 μl using a spin concentrator (Vivaspin®20) with a 10 kDa molecular weight cut-off. […] TLR3 containing fractions were analyzed by SDS-PAGE and pooled and concentrated to 1 mg/ml. Protein concentration was estimated using a Nano Drop by measuring the absorbance at 280 nm (MW=[…], ε=61.9 mol^−1 cm^−1).
The human BGN (38-368) was modified with an N-terminal Secrecon tag followed by a 6× poly histidine tag and a Strep-Tag II. […] The protein fractions were analyzed by SDS-PAGE and BGN containing fractions were pooled and concentrated to a final volume of ˜500 μl using a spin concentrator (Vivaspin®20) with a 10 kDa molecular weight cut-off. […]

B1: BGN: proteoglycan biglycan (BGN), a structural protein of the extracellular matrix (ECM) (protein)
chain: DEEASGAETTSGIPDLDSLPPTYSAMCPFGCHCHLRVVQCSDLGLKAVPKEISPDTTLLDLQNNDISELRKDDFKGLQHLYALVLVNNKISKIHEKAFSPLRKLQKLYISKNHLVEIPPNLPSSLVELRIHDNRIRKVPKGVFSGLRNMNCIEMGGNPLENSGFEPGAFDGLKLNYLRISEAKLTGIPKDLPETLNELHLDHNKIQAIELEDLLRYSKLYRLGLGHNQIRMIENGSLSFLPTLRELHLDNNKLSRVPAGLPDLKLLQVVYLHTNNITKVGVNDFCPVGFGVKRAYYNGISLFNNPVPYWEVQPATFRCVTDRLAIQFGNYKK
interaction with huTLR3-ECD by immunoprecipitation: confirmed this interaction
